The record followed here is the supplement of paper PMC12067230.

± gives the uncertainty stated by the source.

To fix the notation:
B1: H-33-W; numbered along this chain (parent)
chain: EASNCFAIRHFENKFAVETLICFNLFLNSQEKHY

In this data set the parent is B1. Kind of data set: amyloid nucleation score relative to WT ADan (yeast Sup35 reporter selection) (log enrichment difference); higher = more amyloid nucleation. In outline: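 A psi-minus, pin-minus S. cerevisiae strain carried a library of single amino-acid substitution and stop-truncation variants of the ADan peptide fused to the Sup35 nucleation domain, in three biological replicates. Expression was induced for 24 h in SC-URA with 2% glucose and 100 μM copper sulfate, then cells were selected on adenine-lacking plates for 7 d at 30 °C. Input and output plasmids were Illumina-sequenced, and variants with fewer than 200 input reads were dropped. Nucleation score is the log output/input enrichment minus that of the unmutated peptide, merged across replicates by error-weighted mean in DiMSum.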
EASNCFAIRHFENKFAVETLICFNLFLNSQEKWY: the amyloid nucleation score is -0.788 ± 0.17. For EASNCFAIRHFENKFAVETLICFNLFLNSQEKAY the value was -0.505 ± 0.13; for EASNCFAIRHFENKFAVETLICFNLFLNSQEKTY, -0.406 ± 0.17.

Take EASNCFAIRHFENKFAVETLICFNLFLNSQEKYY: the amyloid nucleation score is -0.228 ± 0.17. Under EASNCFAIRHFENKFAVETLICFNLFLNSQEKMY stands -0.289 ± 0.17; under EASNCFAIRHFENKFAVETLICFNLFLNSQEKFY, -0.205 ± 0.18. For EASNCFAIRHFENKFAVETLICFNLFLNSQEKLY the value was -0.693 ± 0.12.

As to EASNCFAIRHFENKFAVETLICFNLFLNSQEKSY, the amyloid nucleation score was -0.164 ± 0.1.

For EASNCFAIRHFENKFAVETLICFNLFLNSQEKNY, the amyloid nucleation score amounted to 0.15 ± 0.16. For EASNCFAIRHFENKFAVETLICFNLFLNSQEKKY the value was -0.0712 ± 0.19. Turning to EASNCFAIRHFENKFAVETLICFNLFLNSQEKPY, the amyloid nucleation score was -0.211 ± 0.18. As for EASNCFAIRHFENKFAVETLICFNLFLNSQEKDY, the amyloid nucleation score came out at 0.264 ± 0.15. For EASNCFAIRHFENKFAVETLICFNLFLNSQEKIY the value was -1.01 ± 0.19. EASNCFAIRHFENKFAVETLICFNLFLNSQEKVY: the amyloid nucleation score is -0.668 ± 0.11. EASNCFAIRHFENKFAVETLICFNLFLNSQEKEY: the amyloid nucleation score was 0.174 ± 0.16. For EASNCFAIRHFENKFAVETLICFNLFLNSQEKCY the value was -1.33 ± 0.19; for EASNCFAIRHFENKFAVETLICFNLFLNSQEKRY, -0.172 ± 0.093; for EASNCFAIRHFENKFAVETLICFNLFLNSQEKQY, -0.171 ± 0.18. Under EASNCFAIRHFENKFAVETLICFNLFLNSQEKGY stands -0.479 ± 0.096.

With EASNCFAIRHFENKFAVETLICFNLFLNSQEKHE, the amyloid nucleation score came to 0.297 ± 0.14. For the variant EASNCFAIRHFENKFAVETLICFNLFLNSQEKHD, the amyloid nucleation score amounted to 0.321 ± 0.13. For EASNCFAIRHFENKFAVETLICFNLFLNSQEKHQ the value was 0.196 ± 0.2. Regarding EASNCFAIRHFENKFAVETLICFNLFLNSQEKHW, the amyloid nucleation score is -0.636 ± 0.14. For EASNCFAIRHFENKFAVETLICFNLFLNSQEKHV the value was 0.031 ± 0.11; for EASNCFAIRHFENKFAVETLICFNLFLNSQEKHC, 0.316 ± 0.14. EASNCFAIRHFENKFAVETLICFNLFLNSQEKHP: the amyloid nucleation score was -0.211 ± 0.18. As for EASNCFAIRHFENKFAVETLICFNLFLNSQEKHT, the amyloid nucleation score was -0.062 ± 0.14. For EASNCFAIRHFENKFAVETLICFNLFLNSQEKHA the value was -0.0498 ± 0.12; for EASNCFAIRHFENKFAVETLICFNLFLNSQEKHN, -0.386 ± 0.18. For EASNCFAIRHFENKFAVETLICFNLFLNSQEKHH the value was 0.0246 ± 0.18; for EASNCFAIRHFENKFAVETLICFNLFLNSQEKHS, 0.193 ± 0.1; for EASNCFAIRHFENKFAVETLICFNLFLNSQEKHR, 0.398 ± 0.088. EASNCFAIRHFENKFAVETLICFNLFLNSQEKHK: the amyloid nucleation score turned out to be 0.234 ± 0.17. Under EASNCFAIRHFENKFAVETLICFNLFLNSQEKHG stands 0.194 ± 0.098; under EASNCFAIRHFENKFAVETLICFNLFLNSQEKHF, -0.228 ± 0.14. Under EASNCFAIRHFENKFAVETLICFNLFLNSQEKHM stands 0.0777 ± 0.15. In the case of EASNCFAIRHFENKFAVETLICFNLFLNSQEKHI, the amyloid nucleation score is -0.222 ± 0.16. For EASNCFAIRHFENKFAVETLICFNLFLNSQEKHL the value was -0.0163 ± 0.1; for EASNCFAIRHFENKFAVETLICFNLFLNSQNKHY, -0.844 ± 0.19. Under EASNCFAIRHFENKFAVETLICFNLFLNSQWKHY stands -6.44 ± 1.2. Regarding EASNCFAIRHFENKFAVETLICFNLFLNSQMKHY, the amyloid nucleation score was -3.06 ± 0.36. For EASNCFAIRHFENKFAVETLICFNLFLNSQRKHY the value was -2.51 ± 0.16; for EASNCFAIRHFENKFAVETLICFNLFLNSQLKHY, -3.31 ± 0.34. Take EASNCFAIRHFENKFAVETLICFNLFLNSQYKHY: the amyloid nucleation score is -2.5 ± 0.28. In the case of EASNCFAIRHFENKFAVETLICFNLFLNSQSKHY, the amyloid nucleation score was -0.961 ± 0.12. On to EASNCFAIRHFENKFAVETLICFNLFLNSQTKHY, for which the amyloid nucleation score was -1.22 ± 0.17.

Turning to EASNCFAIRHFENKFAVETLICFNLFLNSQQKHY, the amyloid nucleation score is -0.871 ± 0.2.

Regarding EASNCFAIRHFENKFAVETLICFNLFLNSQPKHY, the amyloid nucleation score was -0.569 ± 0.2. On to EASNCFAIRHFENKFAVETLICFNLFLNSQVKHY, for which the amyloid nucleation score was -1.09 ± 0.11. In the case of EASNCFAIRHFENKFAVETLICFNLFLNSQEWHY, the amyloid nucleation score is -0.739 ± 0.13.

Turning to EASNCFAIRHFENKFAVETLICFNLFLNSQEEHY, the amyloid nucleation score was determined as 0.78 ± 0.13. EASNCFAIRHFENKFAVETLICFNLFLNSQEFHY: the amyloid nucleation score was -0.726 ± 0.15. For EASNCFAIRHFENKFAVETLICFNLFLNSQEHHY the value was 0.279 ± 0.17; for EASNCFAIRHFENKFAVETLICFNLFLNSQEPHY, 0.00117 ± 0.17. Take EASNCFAIRHFENKFAVETLICFNLFLNSQERHY: the amyloid nucleation score was -0.086 ± 0.083. Take EASNCFAIRHFENKFAVETLICFNLFLNSQENHY: the amyloid nucleation score was found to be 0.686 ± 0.14. Regarding EASNCFAIRHFENKFAVETLICFNLFLNSQEVHY, the amyloid nucleation score is -0.601 ± 0.097. Consider EASNCFAIRHFENKFAVETLICFNLFLNSQEIHY, for which the amyloid nucleation score is -1.31 ± 0.18. Regarding EASNCFAIRHFENKFAVETLICFNLFLNSQEDHY, the amyloid nucleation score turned out to be 0.768 ± 0.14. Under EASNCFAIRHFENKFAVETLICFNLFLNSQESHY stands 0.198 ± 0.091; under EASNCFAIRHFENKFAVETLICFNLFLNSQEYHY, -0.0344 ± 0.16; under EASNCFAIRHFENKFAVETLICFNLFLNSQECHY, -0.144 ± 0.13. Under EASNCFAIRHFENKFAVETLICFNLFLNSQEQHY stands 0.041 ± 0.16; under EASNCFAIRHFENKFAVETLICFNLFLNSQEAHY, 0.179 ± 0.12; under EASNCFAIRHFENKFAVETLICFNLFLNSQETHY, 0.234 ± 0.13.

For EASNCFAIRHFENKFAVETLICFNLFLNSQEMHY, the amyloid nucleation score was -0.157 ± 0.14. For the variant EASNCFAIRHFENKFAVETLICFNLFLNSQELHY, the amyloid nucleation score is -0.598 ± 0.098.

Take EASNCFAIRHFENKFAVETLICFNLFLNSQEGHY: the amyloid nucleation score amounted to 0.113 ± 0.081.
